# Reference: PMC11751033
# Test system: ATF 3r (six-zinc-finger artificial transcription factor with NLS, VP64 and HA tag) (artificial/designed (expressed in E. coli BL21))
# Test: EMSA
# Settings: EMSA: 2.5% glycerol, 5 mM MgCl2, 0.05% NP-40, 50 mM KCl, 20 uL, 20 pmol DNA, 0 C 1 h; 4-8% native PAGE in TBE pH 8.2-8.4, 5 C, SYBR Safe stain; binding pH not …
substance,measurement,value
IFNG target dsDNA (ATF 3 site),Kd,5.2 nM
